Data: patent publication US11491212

B1: FIXa-Y155F/K247N/N249S/R338E/E410N (protein)
chain 1: not shown
chain 2: not shown
B2: FIXa-K247N/N249S/R318Y/T343R/E410N (protein)
chain 1: not shown
chain 2: not shown
B3: FIXa-K247N/N249S/R338E/T343R/E410N (protein)
chain 1: not shown
chain 2: not shown
B4: FIXa-K247N/N249S/R318Y/R338E/T343R/E410N (protein)
chain 1: not shown
chain 2: not shown
B5: FIXa-Y155F/K247N/N249S/R318Y/T343R/E410N (protein)
chain 1: not shown
chain 2: not shown
B6: FIXa-Y155F/K247N/N249S/R338E/T343R/E410N (protein)
chain 1: not shown
chain 2: not shown
B7: FIXa-K247N/N249S/R318Y/T343R/R403E (protein)
chain 1: not shown
chain 2: not shown
B8: FIXa-R318Y/R338E/Y345A/R403E/E410N (protein)
chain 1: not shown
chain 2: not shown
B9: FIXa-K247N/N249S/R318Y/T343R/R403E/E410N (protein)
chain 1: not shown
chain 2: not shown
B10: FIXa-Y155F/K247N/N249S/R338E/R403E/E410N (protein)
chain 1: not shown
chain 2: not shown
B11: FIXa-Y155F/K247N/N249S/R338E/T343R/R403E (protein)
chain 1: not shown
chain 2: not shown
B12: FIXa-Y155F/K247N/N249S/R318Y/T343R/R403E (protein)
chain 1: not shown
chain 2: not shown
B13: FIXa-Y155F/K247N/N249S/R318Y/T343R/R403E/E410N (protein)
chain 1: not shown
chain 2: not shown
B14: FIXa-Y155F/K247N/N249S/T343R/R403E/E410N (protein)
chain 1: not shown
chain 2: not shown

The proteins below were run against Factor X, P00742.
Factor X, P00742, sequence (P00742 whole entry, looked up): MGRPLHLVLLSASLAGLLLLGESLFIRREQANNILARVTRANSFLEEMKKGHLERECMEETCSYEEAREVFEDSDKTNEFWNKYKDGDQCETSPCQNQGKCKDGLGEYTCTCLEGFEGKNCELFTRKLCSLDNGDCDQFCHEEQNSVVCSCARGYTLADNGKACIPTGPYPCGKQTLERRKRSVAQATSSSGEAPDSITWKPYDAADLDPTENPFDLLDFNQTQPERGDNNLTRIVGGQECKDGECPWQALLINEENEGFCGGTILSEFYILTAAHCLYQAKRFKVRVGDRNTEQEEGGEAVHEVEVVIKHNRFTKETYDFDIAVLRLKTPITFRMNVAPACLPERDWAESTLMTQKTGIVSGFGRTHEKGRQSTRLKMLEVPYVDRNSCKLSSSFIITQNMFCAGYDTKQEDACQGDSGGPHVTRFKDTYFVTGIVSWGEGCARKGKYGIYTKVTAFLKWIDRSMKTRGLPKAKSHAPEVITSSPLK
B1 showed a KM of 0.0177 µM.
For B2, the KM was 0.0401 µM.
B3 gave a KM of 0.0275 µM.
For B4, the KM was 0.0328 µM.
With B5 the KM was 0.0381 µM.
B6 showed a KM of 0.027 µM.
B7 was tested, and the KM was 0.105 µM.
For B8, the kcat/KM was 8.3e+07 M⁻¹ s⁻¹.
B9 showed a KM of 0.0805 µM.
With B10 the kcat/KM was 1.1e+08 M⁻¹ s⁻¹.
B11 showed a KM of 0.0251 µM.
In the case of B12, the KM is reported as 0.0605 µM.
Work on B13 yielded a KM of 0.0606 µM.
For B14, the KM was 0.052 µM.

The proteins below were run against Factor X (FX), P00742.
Factor X (FX), P00742, sequence (P00742 whole entry, looked up): as above
B1 gave a kcat of 7.3 s⁻¹.
B2 showed a kcat of 6.1 s⁻¹.
For B3, the kcat was 7.9 s⁻¹.
For B4, the kcat was 8.8 s⁻¹.
In the case of B5, the kcat is reported as 8.1 s⁻¹.
With B6 the kcat was 4.8 s⁻¹.
Protein B7 has a kcat of 3.7 s⁻¹.
With B8 the KM was 0.0188 µM and the kcat was 1.4 s⁻¹.
With B9 the kcat was 9.5 s⁻¹.
With B10 the KM was 0.0487 µM.
B11 was tested, and the kcat was 14.6 s⁻¹.
B12 gave a kcat of 7.5 s⁻¹.
B13 showed a kcat of 9 s⁻¹.
With B14 the kcat was 15 s⁻¹.
